Laboratory results as given in the RNAGym collection of RNA variant scans (doi:10.1073/pnas.2313332121).
Variants at the floor of the assay were thinned out.

B1: TPR 5TU (parent)
chain: GGAUCUUCUCGAUCUAACAAAAAAGACAAAUCUGCCACAAAGCUUGAGAGCAUCUUCGGAUGCAGAGGCGGCAGCCUUCGGUGGCGCGAUAGCGCCAACGUUCUCAACUAUGACACGCAAAACGCGUGCUCCGUUGAAUGGAGUUUAUCAUG

Variants of: B1
Assay: polymerase ribozyme fitness, log enrichment relative to wild type (log ratio); higher = more active; in vitro selection for triplet polymerase activity
Method in brief: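 Fitness measures genotype enrichment against wild-type enrichment on a logarithmic scale, with inverse-variance-weighted averaging of replicates. The logarithm is base 2, and genotypes were kept only with ≥10 input reads and ≥1 read per output in Illumina sequencing. The sequenced libraries came from one triplicate in vitro selection round, including frozen incubation at −7 °C, of PCR-built, transcribed mutant libraries of each subunit of a heterodimeric triplet polymerase ribozyme.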

Point of comparison: A21G C85U, “polymerase ribozyme fitness (log ratio)” value -0.132. Against it:
- A19U G92C — lower, -1.68
- A20G G124U — lower, -0.645
- A20G U104C G117U — within 0.2 log units, -0.102
- A20G C57U C99A C108U — lower, ≤ -4.2
- A21U C96U C108U C132A — lower, ≤ -4.2
- A20G C38A C95U C125U G140C — lower, ≤ -4.2
- A20C G50C U55G C105U — lower, ≤ -4.2
- A21C U53G C87A C95A C149G — lower, ≤ -4.2
- A21C C63U A73C C95A A98U — lower, -3.29
- A20G A26U U31G A40G C125G U151C G152A — lower, ≤ -4.2
- A20G C96U — lower, -0.654
- A21U A29C A30C A39G U44A A49C U53A G68A C105U — lower, ≤ -4.2
- A21C A26C C85U A89C G136A G141A — lower, -4.04
- A20U A40C G80U G83A C99U G133U A142G U145C — lower, ≤ -4.2
- A20U C87U — lower, -2.07
- A20C C36U A47C — lower, -1.91
- A20G U56A — lower, -0.723
- A20G C38G C69U G86U A91U C99G A137G — lower, ≤ -4.2
- A20U A26U A29U G46A A49C A106U — lower, ≤ -4.2
- A20C A28U C93U C129U G143A — lower, ≤ -4.2
- A21G G25C G34A A49G C72U G92C G112U — lower, ≤ -4.2
- A21U C96G G143U — lower, -3.69
- A21C A49C A52C U53G G84U C95U G141A — lower, ≤ -4.2
- A21C C93U A97U C116U C123U — lower, -0.404
- A21U A24C A26U U44G A89U A91G G128U G140C U145A — lower, ≤ -4.2
- A20C C54U G70C C93A — lower, ≤ -4.2
- A21U C51U G126U — higher, 0.375
- A20U A22U A52C G67A U127A — lower, ≤ -4.2
- A21U C75G — lower, -4.03
- A21C C93A — lower, -2.02
- A21G C116G — higher, 1.2
- A20C U55A A89G G94C C95A C108G C123G — lower, ≤ -4.2
- A20G C93U — lower, -2.59
- A20C U53A G84A — lower, -1.69
- A21U C43U C99G A120G G126U — lower, ≤ -4.2
- A21G A41C U56G G65A G141U — lower, -3.42
- A20U U33C G71A U104A A106G A107G A137C — lower, ≤ -4.2
- A21U A47G C54U G81C G92A C95A C99U — lower, -3.94
- A21C G50C G74A C87G U109G — lower, ≤ -4.2
- A21G C85A — lower, -1.12
- A21U C35U C129U — lower, -0.6
- A20U G59A G88A C95G U151A — lower, ≤ -4.2
- A21U A73G C129G — lower, -3.49
- A21U A23C C38A C99G A142C — lower, ≤ -4.2
- A21C C57G — lower, -0.649
- A20G U77A C85U C105U U135A A138G — lower, ≤ -4.2
- A20G A21C G92A C108G — lower, ≤ -4.2
- A20C A113U U127A — lower, ≤ -4.2
- A21G G141A — higher, 1.12
- A20G G46A U55G G70A C76U G84A C96U C103G C114U G152U — lower, ≤ -4.2
- A21C G81C G88A A107G — lower, ≤ -4.2
- A21G C27G C114U U135G U146A U148G — lower, ≤ -4.2
- A20C G84U — lower, -3.03
- A21U G50C C54U C63U G94A — within 0.2 log units, -0.0103
- A21C U56A — lower, -0.39
- A21C G50C C63U C93G — lower, -1.78
- A21U A39U C43G G50C G92A G141U — lower, ≤ -4.2
- A21G C32G G34C U56A G59C U82G G88U C103G G140U — lower, ≤ -4.2
- A20C A52C C79G — lower, ≤ -4.2
- A20G G46A U146A — lower, -1.3
- A19U G94C — lower, -0.449
- A21G C51U U53A C96U G126U — lower, -2.46
- A21U A23U A24C C54U G81A C85U — lower, ≤ -4.2
- A21G A29G G83C A98U — lower, ≤ -4.2
- A20C C36A C51U U55G C69G A73U G81A C96U G141U — lower, ≤ -4.2
- A21U A47C A52C A60G C85G C87A A121C — lower, ≤ -4.2
- A21U G141A — higher, 1.36
- A21C C69A — lower, -1.75
- A20U A49C G50C G92U U146G C149U — lower, ≤ -4.2
- A20U G67C — lower, ≤ -4.2
- A21U A52G A66C G128A — lower, ≤ -4.2
- A20G A26U — lower, -2.24
- A20C G50U G83U — lower, -0.904
- A19U G136C — lower, -3.86
- A21G G46C U82G G88U C95G A98C — lower, ≤ -4.2
- A21G G50U G92U A147C — lower, -0.875
- A19U U56A A60G C75U C93A C118U U146A — lower, -3.86
- A21G A26C A66U C87G A115C U134C U146A — lower, ≤ -4.2
- A21G G84C A113U — lower, -4.09
- A20U A113U — lower, -3.74
- A21C U90A G94C — lower, ≤ -4.2
- A21U A39C G58A G94C C125G U148G — lower, ≤ -4.2
- A20G A41U C51A U56A C76U G86U G88U A91U C123A U144A C149A — lower, ≤ -4.2
